Source: paper PMC3052533, “Amino acid changes within the Bunyamwera virus nucleocapsid protein differentially affect the mRNA transcription and RNA replication activities of assembled ribonucleoprotein templates” (The Journal of General Virology, 2011)

B1: Bunyamwera virus (BUNV) nucleocapsid (N) protein, wild type (natural protein)
chain: MIELEFHDVAANTSSTFDPEVAYANFKRVHTTGLSYDHIRIFYIKGREIKTSLAKRSEWEVTLNLGGWKITVYNTNFPGNRNNPVPDDGLTLHRLSGFLARYLLEKMLKVSEPEKLIIKSKIINPLAEKNGITWNDGEEVYLSFFPGSEMFLGTFRFYPLAIGIYKVQRKEMEPKYLEKTMRQRYMGLEAATWTVSKLTEVQSALTVVSSLGWKKTNVSAAARDFLAKFGINM
notes: nucleocapsid (N) protein of Bunyamwera virus, expressed from plasmid pET-BUN-N (Rodgers et al., 2006); predicted monomer mass 28.8 kDa; also called BUNV N protein; WT
B2: BUNV N protein R40A (natural protein, Bunyamwera virus, UniProt P16495 1-233, looked up)
chain: MIELEFHDVAANTSSTFDPEVAYANFKRVHTTGLSYDHIAIFYIKGREIKTSLAKRSEWEVTLNLGGWKITVYNTNFPGNRNNPVPDDGLTLHRLSGFLARYLLEKMLKVSEPEKLIIKSKIINPLAEKNGITWNDGEEVYLSFFPGSEMFLGTFRFYPLAIGIYKVQRKEMEPKYLEKTMRQRYMGLEAATWTVSKLTEVQSALTVVSSLGWKKTNVSAAARDFLAKFGINM
notes: nucleocapsid (N) protein of Bunyamwera virus, from modified plasmid pET-BUN-N, single alanine substitution
B3: BUNV N protein K55A (natural protein, Bunyamwera virus, UniProt P16495 1-233, looked up)
chain: MIELEFHDVAANTSSTFDPEVAYANFKRVHTTGLSYDHIRIFYIKGREIKTSLAARSEWEVTLNLGGWKITVYNTNFPGNRNNPVPDDGLTLHRLSGFLARYLLEKMLKVSEPEKLIIKSKIINPLAEKNGITWNDGEEVYLSFFPGSEMFLGTFRFYPLAIGIYKVQRKEMEPKYLEKTMRQRYMGLEAATWTVSKLTEVQSALTVVSSLGWKKTNVSAAARDFLAKFGINM
notes: as for B2
B4: BUNV N protein K50A (natural protein, Bunyamwera virus, UniProt P16495 1-233, looked up)
chain: MIELEFHDVAANTSSTFDPEVAYANFKRVHTTGLSYDHIRIFYIKGREIATSLAKRSEWEVTLNLGGWKITVYNTNFPGNRNNPVPDDGLTLHRLSGFLARYLLEKMLKVSEPEKLIIKSKIINPLAEKNGITWNDGEEVYLSFFPGSEMFLGTFRFYPLAIGIYKVQRKEMEPKYLEKTMRQRYMGLEAATWTVSKLTEVQSALTVVSSLGWKKTNVSAAARDFLAKFGINM
notes: as for B2
B5: BUNV N protein K179A (natural protein, Bunyamwera virus, UniProt P16495 1-233, looked up)
chain: MIELEFHDVAANTSSTFDPEVAYANFKRVHTTGLSYDHIRIFYIKGREIKTSLAKRSEWEVTLNLGGWKITVYNTNFPGNRNNPVPDDGLTLHRLSGFLARYLLEKMLKVSEPEKLIIKSKIINPLAEKNGITWNDGEEVYLSFFPGSEMFLGTFRFYPLAIGIYKVQRKEMEPKYLEATMRQRYMGLEAATWTVSKLTEVQSALTVVSSLGWKKTNVSAAARDFLAKFGINM
notes: as for B2
B6: BUNV N protein R94A (natural protein, Bunyamwera virus, UniProt P16495 1-233, looked up)
chain: MIELEFHDVAANTSSTFDPEVAYANFKRVHTTGLSYDHIRIFYIKGREIKTSLAKRSEWEVTLNLGGWKITVYNTNFPGNRNNPVPDDGLTLHALSGFLARYLLEKMLKVSEPEKLIIKSKIINPLAEKNGITWNDGEEVYLSFFPGSEMFLGTFRFYPLAIGIYKVQRKEMEPKYLEKTMRQRYMGLEAATWTVSKLTEVQSALTVVSSLGWKKTNVSAAARDFLAKFGINM
notes: nucleocapsid (N) protein of Bunyamwera virus, from modified plasmid pET-BUN-N, single alanine substitution; monomers and tetramers equally abundant
B7: BUNV N protein R101A (natural protein, Bunyamwera virus, UniProt P16495 1-233, looked up)
chain: MIELEFHDVAANTSSTFDPEVAYANFKRVHTTGLSYDHIRIFYIKGREIKTSLAKRSEWEVTLNLGGWKITVYNTNFPGNRNNPVPDDGLTLHRLSGFLAAYLLEKMLKVSEPEKLIIKSKIINPLAEKNGITWNDGEEVYLSFFPGSEMFLGTFRFYPLAIGIYKVQRKEMEPKYLEKTMRQRYMGLEAATWTVSKLTEVQSALTVVSSLGWKKTNVSAAARDFLAKFGINM
notes: as for B2

Molecular target: the molecule itself
Experiment: SEC; Superdex S200 column, purified N proteins analysed immediately following purification; elution compared with molecular mass standards; monomer and tetramer peaks

Row | Protein | stoichiometry N | binding result
1 | B1 | 4 | –
2 | B2 | – | binds
3 | B3 | – | binds
4 | B4 | – | binds
5 | B5 | – | binds
6 | B6 | 4 | –
7 | B7 | – | binds
